Common to all, as to conditions: both partners purified
For assay [1], the target named is T1, activated BinB (act-B), trypsin-cleaved (Lysinibacillus sphaericus).
T1 chain: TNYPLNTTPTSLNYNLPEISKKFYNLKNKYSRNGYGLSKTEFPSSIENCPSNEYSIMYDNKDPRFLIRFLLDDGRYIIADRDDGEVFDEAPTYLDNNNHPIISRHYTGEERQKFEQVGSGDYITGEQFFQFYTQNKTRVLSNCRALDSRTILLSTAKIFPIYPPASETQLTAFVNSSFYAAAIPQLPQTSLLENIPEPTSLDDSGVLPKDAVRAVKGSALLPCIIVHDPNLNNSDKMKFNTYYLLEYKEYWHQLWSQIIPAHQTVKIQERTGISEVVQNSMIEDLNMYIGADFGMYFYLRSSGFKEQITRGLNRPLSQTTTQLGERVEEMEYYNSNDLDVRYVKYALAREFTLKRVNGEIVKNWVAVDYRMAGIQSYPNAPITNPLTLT
The assay is described as follows: SEC; Superdex 200 HR 10/30, 50 mM Tris-HCl pH 9.0, 50 mM NaCl, 1 mM DTT; subunits alone or mixed 1:1, incubated 15 min at room temperature; typically 60 μM before and 18 μM after chromatography (total monomer); eluted band checked by SDS-PAGE and MALDI-TOF. Background: SEC sorts molecules by how far they enter the pores of the column.

Assay [2] addresses T1, activated BinB (act-B), trypsin-cleaved. As to the kind of experiment: AUC; sedimentation equilibrium, 20°C, 3–10 μM in monomer, 10 to 22.5 krpm, same buffer with 35 mM C8E5 density matched with 16% D2O; global fit to an A+B heteroassociation model (SEDPHAT).
Assay [3] has the same target. The assay is described as follows: AUC; sedimentation equilibrium, 20°C, 3–10 μM in monomer, 10 to 22.5 krpm, 50 mM Tris-HCl pH 9.0, 50 mM NaCl, 1 mM DTT, without detergent; global fit to an A+B heteroassociation model (SEDPHAT).

What is called stoichiometry N is a count of units in the complex or per binding partner.

B1: activated BinA (act-A), trypsin-cleaved (domain or fragment)
chain: IDSFIPTEGKYIRVMDFYNSEYPFCIHAPSAPNGDIMTEICSRENNQYFIFFPTDDGRVIIANRHNGSVFTGEATSVVSDIYTGSPLQFFREVKRTMATYYLAIQNPESATDVRALEPHSHELPSRLYYTNNIENNSNILISNKEQIYLTLPSLPENEQYPKTPVLSGIDDIGPNQSEKSIIGSTLIPCIMVSDFISLGERMKTTPYYYVKHTQYWQSMWSALFPPGSKETKTEKSGITDTSQISMTDGINVSIGADFGLRFGNKTFGIKGGFTYDTKTQITNTSQLLIETTYTREYTNTENFPVRYTGYVLASEFTLHRSDGTQVNTIPWVALNDNYTTIARYPHFASEPLLGNTKIITDDQN
modifications: Trypsin-activated. Cleavage sites not given; UniProt mature chain limits used (MALDI about 40.8 kDa). Strain not given; P06575 chosen over the strain variant P05516. / Trypsin-activated. Cleavage
Take B1: in assay [1], the “stoichiometry N” value came to 1. Further, the values for the Ka in assay [2] and in assay [3] were 1.92e+06 M⁻¹ and 1.19e+06 M⁻¹, respectively.
